{
  "source": "paper doi:10.1101/122184",
  "about": "(bioRxiv, 2017)",
  "proteins": {"B1": {"name": "BAR (bialaphos resistance; phosphinothricin acetyltransferase) from Streptomyces hygroscopicus (enzyme, UniProt P16426 1-183, looked up)", "chain": "MSPERRPADIRRATEADMPAVCTIVNHYIETSTVNFRTEPQEPQEWTDDLVRLRERYPWLVAEVDGEVAGIAYAGPWKARNAYDWTAESTVYVSPRHQRTGLGSTLYTHLLKSLEAQGFKSVVAVIGLPNDPSVRMHEALGYAPRGMLRAAGFKHGNWHDVGFWQLDFSLPVPPRPVLPVTEI"}},
  "target": "the molecule itself",
  "assay": "crystal structure",
  "data": [
    {"protein": "B1", "values": [
      {"measurement": "stoichiometry N", "result": 2}
    ]}
  ]
}
